These results are taken from patent US20150111822A1 (OTTAWA HOSPITAL RESEARCH INSTITUTE, published 2015).

The experiment addresses T1, endogenous Fzd7 on activated mouse satellite cells (mouse, UniProt Q61090 33-572).
T1 construct: whole, on cells; also called Frizzled7; Wnt7a receptor Fzd7
As to the kind of experiment: in-situ proximity ligation assay (PLA) on activated satellite cells on cultured myofibers; signal abolished by siSdc4. The method, then: A) Co-IP of Sdc4 with the Wnt7a receptor Fzd7 from satellite cell derived primary myoblasts overexpressing (OE) Fzd7-Flag and Sdc4-YFP. Co-IP was performed with an anti-YFP antibody or with an IgG control. B) Proximity ligation assay (PLA) of Sdc4 and Fzd7 in activated satellite cells after 42 hours of fiber culture. […] Scale bar=5 μm. C) Proximity ligation assay (PLA) of Sdc4 and FN in activated satellite cells after 42 hours of fiber culture. […] Scale bar=5 μm. D) Co-IP of Fzd7 with FN from satellite cell derived primary myoblasts overexpressing (OE) Fzd7-Flag and FN. Co-IP was performed with an anti-YFP antibody. siRNA knockdown of endogenous Sdc4 (siSdc4) prevented Co-IP of FN with Fzd7 when compared to siSCR. E) Co-IP of Sdc4 with Wnt7a from satellite cell derived primary myoblasts that overexpress (OE) Sdc4-YFP and Wnt7a-HA. Co-IP was performed with an anti-flag antibody. siRNA knockdown of endogenous Fzd7 prevented Co-IP of Sdc4 with Wnt7a. F) Rac1 activation assay. Total Rac1 is shown as a loading control. Densitometric quantification represents average grey values±SEM after subtraction of the background and normalization to total Rac1. The average grey value obtained for empty vector (EV) was set to 100%, n=3, p values are ***p<0.001, **p<0.01, *p<0.05.
Mouse Fzd7 immunoprecipitated with mouse Sdc4 in mammalian myogenic cells. […]

B1: endogenous Syndecan 4 (Sdc4) on mouse satellite cells and primary myoblasts (receptor, UniProt O35988 24-198, looked up)
chain: ESIRETEVIDPQDLLEGRYFSGALPDDEDAGGSDDFELSGSGDLDDTEEPRPFPEVIEPLVPLDNHIPENAQPGIRVPSEPKELEENEVIPKRAPSDVGDDMSNKVSMSSTAQGSNIFERTEVLAALIVGGVVGILFAVFLILLLVYRMKKKDEGSYDLGKKPIYKKAPTNEFYA
notes: whole, on cells; also called FN receptor Sdc4
With B1, the binding result was “binds”.
